Earlier results in publication PMC13292882.

Tests used:
PCNA (Homo sapiens) = PCNA (Homo sapiens) (UniProt P12004); conditions: cited from earlier work
RPA (Homo sapiens) = RPA (Homo sapiens) (UniProt P27694); assay: competition peptide displacement; conditions: cited from earlier work
RPA (Homo sapiens), sequence (P27694 2-616, chain 1 of 3): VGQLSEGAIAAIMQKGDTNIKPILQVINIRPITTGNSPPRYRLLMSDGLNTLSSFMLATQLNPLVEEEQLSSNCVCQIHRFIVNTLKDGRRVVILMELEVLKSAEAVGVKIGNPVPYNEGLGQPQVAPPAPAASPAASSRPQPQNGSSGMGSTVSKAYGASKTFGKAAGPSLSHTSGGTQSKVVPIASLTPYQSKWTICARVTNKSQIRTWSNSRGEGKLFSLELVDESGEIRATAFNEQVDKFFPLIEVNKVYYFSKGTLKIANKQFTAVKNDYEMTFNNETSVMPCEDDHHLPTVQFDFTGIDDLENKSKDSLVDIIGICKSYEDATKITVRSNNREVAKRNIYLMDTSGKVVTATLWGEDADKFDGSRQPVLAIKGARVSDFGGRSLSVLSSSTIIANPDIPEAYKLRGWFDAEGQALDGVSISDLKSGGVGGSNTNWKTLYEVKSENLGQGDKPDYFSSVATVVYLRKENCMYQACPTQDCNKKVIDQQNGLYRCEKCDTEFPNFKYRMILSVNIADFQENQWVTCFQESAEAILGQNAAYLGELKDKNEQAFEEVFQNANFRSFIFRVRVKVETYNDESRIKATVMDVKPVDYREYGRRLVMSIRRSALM
RPA (Homo sapiens), sequence (P15927 whole entry, chain 2 of 3, further chain): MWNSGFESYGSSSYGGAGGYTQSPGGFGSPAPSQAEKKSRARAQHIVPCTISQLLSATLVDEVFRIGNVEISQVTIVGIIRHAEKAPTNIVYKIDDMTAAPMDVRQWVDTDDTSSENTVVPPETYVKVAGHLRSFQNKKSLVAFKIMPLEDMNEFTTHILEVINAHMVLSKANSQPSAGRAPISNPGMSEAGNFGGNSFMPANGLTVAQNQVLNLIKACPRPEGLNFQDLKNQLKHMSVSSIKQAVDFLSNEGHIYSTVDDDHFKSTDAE
RPA (Homo sapiens), sequence (P35244 2-121, chain 3 of 3, further chain): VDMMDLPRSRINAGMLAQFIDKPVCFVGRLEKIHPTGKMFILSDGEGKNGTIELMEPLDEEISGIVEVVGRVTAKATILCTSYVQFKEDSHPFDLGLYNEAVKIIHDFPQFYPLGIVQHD

UNG2, sequence (P13051 whole entry): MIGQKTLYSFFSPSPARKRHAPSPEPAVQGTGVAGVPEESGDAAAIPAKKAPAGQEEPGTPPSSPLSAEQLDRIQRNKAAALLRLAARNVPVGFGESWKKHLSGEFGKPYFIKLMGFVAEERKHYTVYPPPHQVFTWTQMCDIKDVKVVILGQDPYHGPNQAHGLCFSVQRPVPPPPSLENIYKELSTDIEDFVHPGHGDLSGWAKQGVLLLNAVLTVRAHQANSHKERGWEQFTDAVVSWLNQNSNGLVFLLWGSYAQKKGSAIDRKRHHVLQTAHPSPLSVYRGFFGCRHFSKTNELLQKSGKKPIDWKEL
PCNA (Homo sapiens), sequence (P12004 whole entry): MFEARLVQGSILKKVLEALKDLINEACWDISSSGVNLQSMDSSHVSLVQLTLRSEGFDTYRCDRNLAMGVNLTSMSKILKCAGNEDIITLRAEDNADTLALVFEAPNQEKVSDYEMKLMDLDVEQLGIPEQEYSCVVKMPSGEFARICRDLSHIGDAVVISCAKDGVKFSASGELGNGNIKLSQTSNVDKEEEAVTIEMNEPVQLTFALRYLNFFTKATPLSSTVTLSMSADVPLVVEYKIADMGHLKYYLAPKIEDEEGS

## UNG2 (from UniProt P13051)
PCNA (Homo sapiens)
  Kd: 1000 nM
RPA (Homo sapiens)
  Kd: 3000 nM
